The values below come from publication PMC2579254 (The EMBO Journal, 2008).

B2: ROCK-I^1−406 (kinase and N-terminal dimerisation domains), His tag cleaved (domain or fragment, UniProt Q13464 1-406, looked up)
chain: MSTGDSFETRFEKMDNLLRDPKSEVNSDCLLDGLDALVYDLDFPALRKNKNIDNFLSRYKDTINKIRDLRMKAEDYEVVKVIGRGAFGEVQLVRHKSTRKVYAMKLLSKFEMIKRSDSAFFWEERDIMAFANSPWVVQLFYAFQDDRYLYMVMEYMPGGDLVNLMSNYDVPEKWARFYTAEVVLALDAIHSMGFIHRDVKPDNMLLDKSGHLKLADFGTCMKMNKEGMVRCDTAVGTPDYISPEVLKSQGGDGYYGRECDWWSVGVFLYEMLVGDTPFYADSLVGTYSKIMNHKNSLTFPDDNDISKEAKNLICAFLTDREVRLGRNGVEEIKRHLFFKNDQWAWETLRDTVAPVVPDLSSDIDTSNFDDLEEDKGEEETFPIPKAFVGNQLPFVGFTYYSNRRYL

The target of series [1] is B2. Nature of the series: crystal structure.
The series “crystal structure” concerns the molecule itself. Put plainly: crystal structure.
Series [2] deals with His6-ROCK-I^1−406 (purified without cleavage of the His6 tag) (UniProt Q13464 1-406). Nature of the series: pull-down.

B1: RhoE^1−200 (RhoE-GTP/Mg2+, residues 1–200) (domain or fragment, UniProt P61587 1-200, looked up)
chain: MKERRASQKLSSKSIMDPNQNVKCKIVVVGDSQCGKTALLHVFAKDCFPENYVPTVFENYTASFEIDTQRIELSLWDTSGSPYYDNVRPLSYPDSDAVLICFDISRPETLDSVLKKWKGEIQEFCPNTKMLLVGCKSDLRTDVSTLVELSNHRQTPVSYDQGANMAKQIGAATYIECSALQSENSVRDIFHVATLACVNK
As to B1, the binding result in series [1] is “binds”.

Turning to B2, the “stoichiometry N” value in “crystal structure” came out at 2.

B3: GST–RhoE^WT (natural protein, UniProt P61587 1-244, looked up)
chain: MKERRASQKLSSKSIMDPNQNVKCKIVVVGDSQCGKTALLHVFAKDCFPENYVPTVFENYTASFEIDTQRIELSLWDTSGSPYYDNVRPLSYPDSDAVLICFDISRPETLDSVLKKWKGEIQEFCPNTKMLLVGCKSDLRTDVSTLVELSNHRQTPVSYDQGANMAKQIGAATYIECSALQSENSVRDIFHVATLACVNKTNKNVKRNKSQRATKRISHMPSRPELSAVATDLRKDKAKSCTVM
With B3, the binding result in series [2] is listed as “binds”.

A word on the stoichiometry N: it is a count of units in the complex or per binding partner.
